Laboratory results: patent publication US20230406922A1 (SIMCERE ZAIMING PHARMACEUTICAL, published 2023)
Residue numbers refer to the chain shown, from its start. Blank lines part the entries; values can stand above or below the binder they belong to.

Legend:
[1] = molecular target: T1, cynomolgus monkey CD19 on peripheral blood B cells (cynomolgus monkey (Macaca fascicularis), UniProt A0A2K5W8L9 20-557); test: FACS on cynomolgus monkey PBMC, gated on CD20-positive B cells
T1 construct: whole, on cells; also called cynomolgus monkey B cells
T1 sequence: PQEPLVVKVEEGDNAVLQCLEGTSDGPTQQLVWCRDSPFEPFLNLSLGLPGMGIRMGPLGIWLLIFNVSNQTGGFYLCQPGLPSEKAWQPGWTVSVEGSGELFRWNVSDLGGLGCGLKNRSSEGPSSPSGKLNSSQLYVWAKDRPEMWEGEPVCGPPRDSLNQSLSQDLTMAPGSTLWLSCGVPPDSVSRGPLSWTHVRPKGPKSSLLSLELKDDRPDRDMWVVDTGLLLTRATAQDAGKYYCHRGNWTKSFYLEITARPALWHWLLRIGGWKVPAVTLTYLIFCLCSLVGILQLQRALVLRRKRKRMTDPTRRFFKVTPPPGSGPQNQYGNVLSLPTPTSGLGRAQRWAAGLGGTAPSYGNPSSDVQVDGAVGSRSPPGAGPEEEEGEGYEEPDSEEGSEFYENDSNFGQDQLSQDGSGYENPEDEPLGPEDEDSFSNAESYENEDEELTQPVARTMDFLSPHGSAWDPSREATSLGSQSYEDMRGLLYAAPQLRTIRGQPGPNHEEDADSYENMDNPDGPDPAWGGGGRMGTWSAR
Method: Monkey peripheral blood mononuclear cells were extracted from fresh cynomolgus monkey peripheral blood (purchased from Shanghai Medicilon Inc.) according to Ficoll-Paque Plus (purchased from GE Healthcare, Cat. No. 171440-02). […] The cells were incubated at room temperature for 1 h. […] The cells were incubated at room temperature for 30 min in the dark, washed 5 times, gently resuspended in PBS, and assayed and analyzed by FACS (FACS Canto™, purchased from BD Biosciences), in which CD20 was used as a marker for B cells.

[2] = molecular target: T2, monkey CD19, full length, on HEK293T cells (monkey, UniProt P15391 20-556 (human entry)); test: FACS titration on HEK293T-monkey CD19 cells
T2 construct: The entry holds the signal peptide; also called HEK293T-monkey CD19
T2 chain: T1 sequence
Method: For suspension cells Raji, the medium supernatant was discarded by direct centrifugation, and the cell pellet was washed twice with PBS. After cell counting of the cells obtained in the last step, the cell pellet was resuspended to 2×10⁶ cells/mL with a blocking solution [PBS+2% (w/w) BSA] and added into a 96-well FACS reaction plate at 50 μL/well. […] After the plate was centrifuged and washed 5 times with a PBS buffer, the results were assayed and analyzed by FACS (FACS Canto™, purchased from BD Biosciences). Data analysis was performed by software (CellQuest) to obtain the mean fluorescence intensity (MFI) of the cells. Then, analysis was performed by software (GraphPad Prism8), data were fitted, and EC₅₀ values were calculated.
HEK293T-monkey CD19 cells were subjected to the FACS assay and data analysis according to the method described in Example 4.2.

proportion of positive cells to B cells (%) at 1 nM [1]: 3%
proportion of positive cells to B cells (%) at 10 nM [1]: 6%
proportion of positive cells to B cells (%) at 100 nM [1]: 39%
B1: FMC63.26-mIgG1 (antibody, V domains shown)
VH: EVTLKESGPVLVKPTETLTLTCTVSGFSLPDYGVSWIRQPPGKALEWLAVIWGSETTYYNSALKSRLTISKDTSKSQVVLTMTNMDPVDTATYYCAKHYYYGGSYAMDYWGQGTTVTVSS
VL: DIQMTQSPSSLSASVGDRVTITCRASQDISKYLNWYQQKPGGAVKLLIYHTSRLHSGVPSRFSGSGSGTDYTLTISSLQPEDFATYYCQQGNTLPYTFGGGTKVEIKR
notes: Humanized FMC63; also called FMC63-L2H6

EC50 (read off the curve) [2]: ~0.2 nM
proportion of positive cells to B cells (%) at 1 nM [1]: 4%
proportion of positive cells to B cells (%) at 10 nM [1]: 10%
proportion of positive cells to B cells (%) at 100 nM [1]: 60%
B2: FMC63.25-mIgG1 (antibody, V domains shown)
VH: B1 VH with P30S
VL: B1 VL
notes: Humanized FMC63; also called FMC63-L2H5
